Data as given in EP4692116A1 (Kexing Biopharm Co., Ltd., dated 2026).
Each block holds one molecule with its values, some of them ahead of it.

Tests used:
[1] = molecular target: human GDF15 protein (Novoprotein, Cat# DRA26) (human) (UniProt Q99988); test: cell-based or functional assay
[2] = molecular target: GDF15-Biotin protein (KACTUS, Cat# GDF-HM215B) (human) (UniProt Q99988); test: blocking ELISA: GFRAL coated, 20 ng/mL GDF15-Biotin with titrated antibody, Streptavidin-HRP
[3] = molecular target: Human GDNF protein (Novoprotein, Cat# C226) (human) (UniProt P39905); test: ELISA, GDNF coated, antibody from 2,000 nM, anti-human Fc-HRP detection
[4] = molecular target: ARTN protein (Novoprotein, Cat# CR34) (human) (UniProt Q5T4W7); test: ELISA, ARTN coated, antibody from 2,000 nM, anti-human Fc-HRP detection
Sequence of ARTN protein (Novoprotein, Cat# CR34) (human) (Q5T4W7 108-220 limits assumed): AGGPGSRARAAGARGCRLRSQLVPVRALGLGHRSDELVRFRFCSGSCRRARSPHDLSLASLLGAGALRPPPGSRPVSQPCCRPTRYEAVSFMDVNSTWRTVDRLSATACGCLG

[5] = molecular target: human GDF15 protein (Novoprotein, Cat# DRA26) (human) (UniProt Q99988); test: ELISA, human GDF15 coated, anti-human Fc-HRP detection
[6] = molecular target: T1, Human GDNF protein (Novoprotein, Cat# C226) (human, UniProt P39905 78-211); test: ELISA, GDNF coated, antibody from 2,000 nM
T1 construct: Bought protein
T1 sequence (looked up): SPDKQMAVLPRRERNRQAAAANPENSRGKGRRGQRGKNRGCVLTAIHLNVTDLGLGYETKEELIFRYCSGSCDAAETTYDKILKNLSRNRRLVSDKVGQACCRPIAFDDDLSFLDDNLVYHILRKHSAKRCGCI

[7] = molecular target: T2, human GDF15 protein (Novoprotein, Cat# DRA26) (human, UniProt Q99988 197-308); test: ELISA, human GDF15 coated, anti-human Fc-HRP detection
T2 construct: Bought recombinant protein; also called growth differentiation factor 15; MIC-1
T2 sequence (looked up): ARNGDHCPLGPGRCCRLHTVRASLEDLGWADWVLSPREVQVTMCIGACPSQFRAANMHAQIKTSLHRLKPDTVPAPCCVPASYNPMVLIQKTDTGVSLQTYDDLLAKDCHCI

[8] = molecular target: T3, GDF15-Biotin protein (KACTUS, Cat# GDF-HM215B) (human, UniProt Q99988 197-308, limits assumed, biotin (site not stated)); test: blocking ELISA: GFRAL coated, 20 ng/mL GDF15-Biotin with titrated antibody, Streptavidin-HRP
T3 construct: Bought biotinylated protein; also called human GDF15
T3 sequence (looked up): T2 sequence (looked up)

[9] = molecular target: T2, human GDF15 protein (Novoprotein, Cat# …); test: cell-based or functional assay

Molecule: PF-06946860 (Pfizer GDF15 monoclonal antibody, positive control)
IC50 of GDF15 reporter gene activity [1]: 0.0475 nM | IC50 [2]: 0.11 nM | EC50 [3]: 278 nM | EC50 [4]: 97.1 nM | EC50 [5]: 0.0974 nM

Molecule: CTL002 (CatalYm humanized GDF15 monoclonal antibody, positive control)
IC50 of GDF15 reporter gene activity [1]: 1.99 nM | IC50 [2]: 1.5 nM | EC50 [5]: 0.0933 nM

B2: LN11 GDF15 heavy chain single-domain antibody (VHH joined to human IgG1 Fc) (antibody, V domains shown)
VH: QVQLVESGGGLVQPGGSLRLSCAASGFTIRTYTMSWYRQAPGKERALVAYITPGGPTYHIDSVKGRFTISRNNAENTVYLQMNSLKPEDTAVYYCGNGFGSWGQGTQVTVSS
EC50 [7]: 0.382 nM

B3: LN06 GDF15 heavy chain single-domain antibody (full-length, VHH joined to human IgG1 Fc) (antibody, V domains shown)
VH: QLQLVESGGGLVQPGGSLRLSCVASGFTLDDYAIGWFRQAPGKGLEGVSCISSSDESTYYADSVKGRFTISRDNAKNTAYLQMNSLKPEDTAIYYCAADTECPVQVTSMAWGQGTQVTVSS
notes: expressed in CHO cells; No light chain; also called LN06 full-length
binding result [6]: binds | EC50 [7]: 0.0832 nM | IC50 [8]: 0.175 nM | IC50 of GDF15 reporter gene activity [9]: 0.0705 nM

B4: LN14 GDF15 heavy chain single-domain antibody (full-length, VHH joined to human IgG1 Fc) (antibody, V domains shown)
VH: QVQLVESGGGLVQPGGSLRLACAASGFTLDAYAVGWFRQAPGKNPEGVSCISSSDGSAYYADSVKGRFTISRDNAKNTVYLQMNSLKPGDTAVYYCAADLSCPVQIATFHSRGQGTQVTVSS
notes: expressed in CHO cells; No light chain; also called LN14 full-length
EC50 [7]: 0.0988 nM | IC50 [8]: 0.16 nM | IC50 of GDF15 reporter gene activity [9]: 0.0701 nM

Further molecules by falling EC50 [7], results first:

binding result [6]: binds | EC50 [7]: 0.0912 nM | IC50 [8]: 0.221 nM | IC50 of GDF15 reporter gene activity [9]: 0.0778 nM
B6: LN05 GDF15 heavy chain single-domain antibody (full-length, VHH joined to human IgG1 Fc) (antibody, V domains shown)
VH: QVQLVESGGGLVQPGGSLRLSCAASGFTLDYYAIGWFRQAPGKGREGVSCISSNDGSTYYSDSVKGRFTTSRDNAKNTVYLQMNSLKPEDTAVYYCAADLTPCPVNPSVDHYWGQGTQVTVSS
notes: expressed in CHO cells, Protein A purified; No light chain; also called LN05 full-length

binding result [6]: binds | EC50 [7]: 0.0892 nM | IC50 [8]: 0.171 nM | IC50 of GDF15 reporter gene activity [9]: 0.0735 nM
B5: LN25 GDF15 heavy chain single-domain antibody (full-length, VHH joined to human IgG1 Fc) (antibody, V domains shown)
VH: QLQLVESGGGEVQPGGSLRLSCAASGATLDDLSIGWFRQAPGKGLEGVSCISSSDGSTYYADSVKGRFTISRDNAKNTAYLQMNSLRPEDTAVYYCAADREDCPVQPWGIVAGTSRGQGTQVTVSS
notes: expressed in CHO cells; No light chain; also called LN25 full-length

binding result [6]: binds | EC50 [7]: 0.0858 nM | IC50 [8]: 0.147 nM | IC50 of GDF15 reporter gene activity [9]: 0.0719 nM
B1: LN13 GDF15 heavy chain single-domain antibody (full-length, VHH joined to human IgG1 Fc) (antibody, V domains shown)
VH: QLQLVESGGGLVQPGGSLRLSCAASGFTLDYYAIGWFRQAPGKGPEAVSCISSSDGSTYYSDSVKGRFTISRDNAKNTVYLQMNSLKPEDTAVYYCAAGEYGSDCPVQVGSWGQGTQVTVSS
notes: expressed in CHO cells; No light chain; also called LN13 full-length
